Test results as given in the supplement of paper PMC10126150.
± gives the standard deviation of the averaged measurements.

Each sequence was assayed on ATP (assay: switch fluorescence ratio, 500 uM ATP over buffer (Cy3 cluster intensity, sum of 5 cycles each) (fold (ratio)); higher = stronger signal-on switching upon ATP binding; sequences stand for … in TCGTCGGCAGCGTCAGATGTGTATAAGAGACAGTTTTTTTTTTTTTTTTTTTTTTTTT…TC). Settings: aptamer strand: ATP DNA aptamer (quencher-CACCTGGGGGAGTATTGCGGAGGAAGG + anchor), 100 nM annealed; ATP concentration: 500 uM.
In short: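 The quencher-labelled ATP aptamer, at 100 nM, was annealed to Cy3-labelled switching-strand clusters on a modified Illumina MiSeq flow-cell. The clusters were imaged in selection buffer, then after 15 min with 500 uM ATP at 22 °C, and this buffer/ATP cycle ran five times with NaOH stripping and re-annealing between runs. Per-cluster fluorescence ratios, summed target-cycle over summed buffer-cycle Cy3 intensity, were averaged per switch-domain sequence. Clusters outside 100-1000 RFU were excluded.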
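Further: ATP exposure 15 min at 22 °C before imaging.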

First: TACTAGAAGA
Second: TTTATTGACG
The switch fluorescence ratio of the first is higher: 1.03 ± 0.039 for the first, 0.886 ± 0.012 for the second.

Compared with AATCGTATTC, TCGGGGTTTC is higher in switch fluorescence ratio: 0.972 ± 0.011 for the first, 1.05 ± 0.019 for the second.

Going from TGTTTTGGAG to ATAAGCACTT, the switch fluorescence ratio rises from 1 ± 0.032 to 1.22 ± 0.027.

First: TGAGTGAGGT
Second: GATTTTTGTT
The switch fluorescence ratio of the first is lower: 0.959 ± 0.016 for the first, 1.01 ± 0.034 for the second.

ATACTTTTGC and TGCTCGGGGG are within error of each other in switch fluorescence ratio: 0.952 ± 0.034 for the first, 1.15 ± 0.17 for the second.

AATGTAAAGT and GATTGAAGGG are within error of each other in switch fluorescence ratio: 1.001 ± 0.0047 for the first, 0.979 ± 0.032 for the second.

CTTATAATTG and GTTCAAATCA are within error of each other in switch fluorescence ratio: 0.9935 ± 0.00017 for the first, 0.997 ± 0.047 for the second.

Compared with TTATTTAGGC, GTTTTTAGGG is lower in switch fluorescence ratio: 1.12 ± 0.055 for the first, 1.02 ± 0.021 for the second.

GCTCGAGTTG and ATGGTAACGT are within error of each other in switch fluorescence ratio: 0.9967 ± 0.0094 for the first, 1.01 ± 0.044 for the second.

First: CGTGAACATA
Second: TGGGGTTATT
The switch fluorescence ratio of the first is higher: 1.02 ± 0.034 for the first, 0.974 ± 0.0098 for the second.

Going from TAAGGACGGC to CGGGGGTGTT, the switch fluorescence ratio falls from 1.06 ± 0.035 to 0.998 ± 0.023.

AAAGGGGGAA and TCTTTTTGGG are within error of each other in switch fluorescence ratio: 0.998 ± 0.026 for the first, 1.13 ± 0.16 for the second.

TCGTATACGG and GGTGTAGCGA are within error of each other in switch fluorescence ratio: 0.963 ± 0.044 for the first, 1.03 ± 0.026 for the second.

First: ATGGGAGCTT
Second: ATGGACTCAA
The switch fluorescence ratio of the first is lower: 1.01 ± 0.025 for the first, 1.051 ± 0.0073 for the second.

ACGGTGGTCG and AGAGTGGAAG are within error of each other in switch fluorescence ratio: 0.913 ± 0.033 for the first, 0.977 ± 0.051 for the second.

TGAGTGTTTT and GAGTGGAATA are within error of each other in switch fluorescence ratio: 0.997 ± 0.027 for the first, 1.002 ± 0.0083 for the second.

AATCTTTGGA and TCTAAGGGTG are within error of each other in switch fluorescence ratio: 1 ± 0.013 for the first, 1.014 ± 0.01 for the second.

AAAGTTAAGT and GGCAACGCGC are within error of each other in switch fluorescence ratio: 0.976 ± 0.0036 for the first, 0.997 ± 0.031 for the second.

AGGGCTTAGT and TGGGCTTTAG are within error of each other in switch fluorescence ratio: 0.995 ± 0.022 for the first, 0.967 ± 0.041 for the second.

AAGGGGCGAG and GATCCGGGC are within error of each other in switch fluorescence ratio: 0.9796 ± 0.0074 for the first, 1.05 ± 0.087 for the second.

Going from TAGAAGGCTT to TGGAGCGAGG, the switch fluorescence ratio rises from 0.9989 ± 0.0076 to 1.02 ± 0.00015.

GTAACTAGAG and GGGCCTGGAG are within error of each other in switch fluorescence ratio: 0.997 ± 0.033 for the first, 1.012 ± 0.0086 for the second.

TGAGTCTAGG and GGTCCTGGCT are within error of each other in switch fluorescence ratio: 0.9979 ± 0.0026 for the first, 1.015 ± 0.01 for the second.

TTGGTGGGTT and TGGGGGAAGC are within error of each other in switch fluorescence ratio: 0.994 ± 0.04 for the first, 0.984 ± 0.026 for the second.

Compared with TAGATAATGC, CGTGTATTGG is lower in switch fluorescence ratio: 1.075 ± 0.0049 for the first, 0.987 ± 0.013 for the second.

AGATAGGAGT and CCGAAGGACT are the same in switch fluorescence ratio: 1.02 ± 0.019 for the first, 1.02 ± 0.072 for the second.

TAATTGTAGG and ATACTGCTCT are within error of each other in switch fluorescence ratio: 0.98 ± 0.032 for the first, 0.968 ± 0.059 for the second.

GTTGGGCCGG and TTCGTTGGAC are within error of each other in switch fluorescence ratio: 0.987 ± 0.021 for the first, 1.01 ± 0.012 for the second.

Going from GAAGCTAGAA to AATAGATTCG, the switch fluorescence ratio falls from 1.52 ± 0.3 to 0.982 ± 0.017.

ATATTTATAG and AGTTGGGGGG are within error of each other in switch fluorescence ratio: 0.9944 ± 0.0071 for the first, 0.986 ± 0.01 for the second.

First: TAGGTAGCGG
Second: AATGAAAATG
The switch fluorescence ratio of the first is higher: 0.9996 ± 0.0076 for the first, 0.9804 ± 0.0089 for the second.

CAAATTTTCT and TTTTTGACGG are within error of each other in switch fluorescence ratio: 0.978 ± 0.025 for the first, 1 ± 0.033 for the second.

TCACGGTGTG and AAGTCGGTGG are within error of each other in switch fluorescence ratio: 0.983 ± 0.02 for the first, 0.987 ± 0.07 for the second.

TTGTCGCGTA and TAAAAGTGAG are within error of each other in switch fluorescence ratio: 1.01 ± 0.07 for the first, 1 ± 0.022 for the second.

GAGATAAGCT and AAAGTAATGG are the same in switch fluorescence ratio: 1.04 ± 0.022 for the first, 1.04 ± 0.022 for the second.

GTTAAATTTT and GTTTAGGGGA are within error of each other in switch fluorescence ratio: 0.986 ± 0.024 for the first, 0.999 ± 0.015 for the second.

First: AGTTGGATGT
Second: CCCGGAGGCA
The switch fluorescence ratio of the first is lower: 0.977 ± 0.012 for the first, 1.057 ± 0.004 for the second.

Compared with CGTTTACTCT, TATTTCGATA is lower in switch fluorescence ratio: 1.055 ± 0.0043 for the first, 1.029 ± 0.0047 for the second.

Sequence CTGGCAGTGG has a switch fluorescence ratio of 1.05 ± 0.054.
